This assay concerns the target AR ligand binding domain (residues 670-920), biotinylated, N-terminal (His)6-avidin tag (human, UniProt P10275 670-920, biotin (biotinylated form)). The assay is described as follows: FRET or BRET. (In BRET a luciferase serves as donor, and the signal depends on an acceptor being close.)

This is an account of results in paper PMC5136324 (Molecular cancer therapeutics, 2016).

Ends that are not written are not given here. * marks the point of attachment. FITC = O=C1OC2(c3ccc(O)cc3Oc3cc(O)ccc32)c2ccc(NC(=S)*)cc21

As for {FITC}-MPQDLRSPARTPPSEEDSAEA [FITC-labelled SGTA peptide (FITC-MPQDLRSPARTPPSEEDSAEA)], the binding result is “binds”.
